Measurements: the RNAGym collection of RNA variant scans (doi:10.1093/nar/gkz1192)

B1: CPEB3 Ribozyme (parent)
chain: UAACAGGGGGCCACAGCAGAAGCGUUCACGUCGCAGCCCCUGUCAGAUUCUGGUGAAUCUGCGAAUUCUGCUGUAUAUCUC

Variants of: B1
Assay: self-cleavage, relative activity (ratio to wild type); higher = more cleavage; in vitro, sequencing
Method in brief: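 Libraries of CPEB3 self-cleaving ribozyme mutants came from rounds of error-prone PCR and carried barcodes, which DNA sequencing matched to variants. In vitro transcription used T7 RNA polymerase at 37°C for 5 hours, with a further 15 min in DNase I before EDTA stopped the reaction; the ribozymes cleaved during both steps. The RNA was reverse transcribed with template switching and sequenced on Illumina. Relative activity is the cleaved/total read fraction of a variant divided by that of the unmutated ribozyme, averaged over three batches with at least 5 reads.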

Variant	self-cleavage
A28U A35U	0.35
A28U A35C	0.47
A28U A35G	1.22
A28U C59U	0.34
A28U C59A	0.21
A28U A45U	0.4
A28U A45G	0.47
A28U A45C	0.25
C29U U58C	0.46
C29U U58A	0.43
C29U U58G	0.17
A28U G61A	0.45
A28U U54A	0.71
A28U U54C	0.78
C29A A64U	0.27
C29A A64G	0.37
A28U C29U	0.48
A28U C29G	0.1
C29A U48A	0.09
C29A U48C	0.11
G30A G63U	0.13
C29U U54A	0.54
C29U U54C	0.42
A28U U31G	0.31

Variant	self-cleavage
A28U U31A	0.41
A28U U31C	0.53
C29U U78A	0.36
C29U U78G	0.61
C29U U78C	0.44
A28U A65G	0.35
A28U A65U	0.33
C29U G30U	0.23
C29U C32U	0.51
C29U U48C	0.25
C29G A45G	0.29
A28U A57U	0.5
A28U A57G	0.64
A28G U80C	0.81
A28G U80A	0.72
C29A U58C	0.29
C29U U80A	0.48
C29U U80C	0.58
C29U G73C	1.15
A28U C68A	0.32
C29A U31A	0.3
C29A U31C	0.3
G30A A64U	0.34
G30A A64G	0.43

Variant	self-cleavage
C29A U41A	0.37
C29A U41C	0.39
C29A U41G	0.43
C29A C68A	0.23
C29A U49G	0.22
C29A U49A	0.45
C29A U49C	0.29
C29G A56G	0.23
A28U U43C	0.41
A28U U43A	1
G30A G36A	0.4
G30A G36U	0.44
G30A A56U	0.37
G30A A56G	0.37
A28U C40A	0.47
A28U C40G	0.19
A28U C40U	0.59
C29U C79A	0.7
C29U C79U	0.38
C29U C79G	0.68
G30A C39U	0.21
C29A U67A	0.46
C29A U67C	0.11
G30A U43A	0.24

Variant	self-cleavage
G30A U43C	0.24
C29U A64G	0.23
C29U A64C	0.24
C29U A64U	0.25
G30A A47U	0.18
G30A A47G	0.41
A28U G42A	0.27
A28U G42C	0.28
A28U G42U	0.21
A28U U72C	0.88
A28U U72G	0.89
A28U U72A	0.55
C29U G42U	0.23
C29U G42A	0.21
G30A C34G	0.38
A28U G55A	0.59
C29A A65G	0.26
C29A A65U	0.14
A28U U69G	0.42
A28U U69C	0.33
A28U U69A	0.37
C29A U78C	0.3
C29A U78A	0.27
C29G A65G	0.27

Variant	self-cleavage
A28U G70A	0.27
A28G U76C	0.67
A28G U76G	0.56
A28U G52A	0.83
C29G U54C	0.24
C29G U54A	0.28
A28U C71U	0.39
C29U U41C	0.49
C29U U41G	0.26
C29U U41A	0.43
A28G U78A	0.71
A28G U78G	0.67
A28G U78C	0.61
G30A U48A	0.35
G30A U48C	0.27
G30A U48G	0.14
C29G U72C	0.26
C29A U80C	0.54
G30A A57G	0.29
C29U U51A	0.53
C29U U51G	0.8
C29U U51C	0.46
C29A C62U	0.15
A28U A75G	0.71

Variant	self-cleavage
A28U A75U	0.99
A28U G30A	0.11
A28U G30U	0.2
C29G G30A	0.2
A28U A77U	0.85
A28U A77G	0.8
G30A A65G	0.38
C29G U31C	0.13
C29G A57G	0.51
A28U A47G	0.89
A28U A47U	0.67
A28U G36U	0.41
A28U G36C	0.37
A28U G36A	0.08
C29U A77C	0.5
C29U A77G	0.61
C29U A77U	0.49
C29G C81A	0.3
C29G A64G	0.41
G30A C71U	0.18
C29A A56G	0.43
C29U A75G	0.46
C29U A75U	0.72
A28U G73A	0.99

Variant	self-cleavage
A28U G73U	1.37
C29G G55A	0.16
C29A U66C	0.29
C29G A75G	0.21
A28U U58G	0.2
A28U U58C	0.39
A28U U58A	0.26
C29U G52U	0.39
C29U G52A	0.46
C29U A57U	0.2
C29U A57G	0.41
C29G A35G	0.67
C29U C39A	0.28
C29U C39G	0.22
C29A G63U	0.59
G30A U54C	0.43
C29U C68U	0.42
A28U G53U	1
A28U G53A	0.87
G30A U49A	0.1
G30A U49G	0.22
G30A U49C	0.16
A28U C32U	0.17
A28U C32A	0.19

Variant	self-cleavage
C29A C32A	0.32
C29G U58C	0.52
A28U U48C	0.42
A28U U48A	0.38
G30A G52A	0.21
C29U U69C	0.16
C29U U69A	0.3
C29U U69G	0.35
C29G U43C	0.3
G30A C68U	0.12
C29U C62U	0.21
C29U C62G	0.24
C29U U67C	0.23
C29U U67A	0.29
G30A U51A	0.15
G30A U51G	0.1
A28U U60A	0.26
A28U U60G	0.16
A28U U60C	0.38
A28U C81A	0.84
A28U C81U	0.86
A28U U74A	1.19
A28U U74C	0.87
C29A U76G	0.42

Variant	self-cleavage
G30A	0.29
C29G C59G	0.2
C29G C59A	0.1
G30A A45U	0.32
G30A A45C	0.17
G30A A45G	0.25
A28U C37U	0.41
C29U U72G	0.53
C29U U72C	0.75
C29U U72A	0.42
A28U C39G	0.27
A28U C39A	0.15
A28U C39U	0.48
G30A C40U	0.54
A28U U41G	0.14
A28U U41A	0.26
A28U U41C	0.73
A28U G33U	0.14
A28U G33C	0.26
A28U G33A	0.2
A28U U80A	0.71
A28U U80C	0.97
C29U	0.51
C29A	0.44

Variant	self-cleavage
C29G	0.3
C29U U74C	0.97
A28U U66A	0.31
A28U U66C	0.37
A28U U66G	0.69
C29G U69A	0.13
C29G U69G	0.12
C29G U69C	0.21
C29G A47G	0.21
C29U A35U	0.22
C29U A35C	0.25
C29U A35G	1.16
C29A U69G	0.22
C29A U69C	0.18
C29G U41A	0.33
C29G U41G	0.15
C29G U41C	0.2
A28U A56G	0.53
A28U A56U	0.57
A28U A64G	0.63
A28U A64U	0.31
A28U A64C	0.34
C29A U72C	0.31
C29A U72G	0.18

Variant	self-cleavage
C29U U76A	0.62
C29U U76C	0.52
A28U G63A	0.62
G30A U41C	0.22
G30A U41A	0.14
G30A U41G	0.4
C29A U54C	0.45
C29G U78C	0.21
C29U C44A	0.14
A28U C62U	0.19
A28U C62A	0.33
G30A U31C	0.35
G30A U31A	0.32
G30A U31G	0.21
C29U U66A	0.22
C29U U66C	0.37
C29A U74A	0.62
C29U C40U	0.51
C29G U60C	0.11
C29G U60A	0.29
G30A A75G	0.26
G30A G61C	0.24
C29U U60G	0.19
C29U U60A	0.2

Variant	self-cleavage
C29U U60C	0.24
C29U A45G	0.42
C29U A45U	0.19
C29G C34G	0.22
C29G C34U	0.08
C29G U74C	0.31
G30A A77U	0.33
G30A A77G	0.4
C29A C40A	0.17
C29A A75G	0.38
C29U U49C	0.39
C29U U49A	0.16
C29A A57G	0.33
C29A U60A	0.11
C29A U60C	0.2
A28U U49G	0.11
A28U U49C	0.31
A28U U49A	0.43
C29G G33U	0.09
C29A A45G	0.46
A28U U78A	0.51
A28U U78C	0.73
A28U U78G	0.97
C29U C37U	0.34

Variant	self-cleavage
C29G U67C	0.12
G30A G55A	0.2
G30A G70A	0.39
C29U C59A	0.24
C29A G55A	0.31
G30A G73U	0.46
A28U U67A	0.3
A28U U67C	0.27
A28U U67G	0.2
C29U U31C	0.31
C29U U31A	0.2
C29U C81A	0.71
C29A G53U	0.42
C29G U49A	0.38
A28U G46A	0.46
A28U G46U	0.14
C29U U43C	0.31
C29U U43A	0.53
C29U U43G	0.48
A28U U51C	0.73
A28U U51A	0.77
C29A C59U	0.54
C29G G73A	0.39
G30A G46A	0.15

Variant	self-cleavage
A28U U76C	0.88
A28U U76A	0.87
C29U A65G	0.27
C29A A47G	0.4
C29U A56G	0.38
C29U A56U	0.16
C29U A56C	0.42
A28U C50A	0.53
A28U C50U	0.8
A28U C50G	0.74
C29A A77G	0.46
C29A A77U	0.33
C29U C38U	0.16
A28U	0.81
G30A A35G	0.22
G30A A35U	0.15
C29A A35U	0.51
C29A A35G	1.11
A28U C79U	0.99
A28U C38U	0.48
C29U A47U	0.24
C29U A47G	0.55
